Measured values published in publication PMC6458997, “Deciphering the Molecular Mechanism Underpinning Phage Arbitrium Communication Systems” (Molecular Cell, 2019).
“Also recorded” adds a separate entry of the source.

Tests used:
[1] = system: putative AimR operators found in SPbeta genome; assay: EMSA, AimR binding to other SPbeta operators with longer spacers; set-up: species or system Bacillus subtilis SPbeta phage; details: spacers of 27 and 28 bp
Source text: (§1) Gels were stained with RedSafe (Intron Biotechnology).

[2] = SEC-MALS, oligomeric state of AimR proteins; format: physicochemical; details: 5 mg/mL, Superdex 200 HR 10/300, 25 mM Tris pH 8, 250 mM NaCl
Method: SEC-MALS experiments were performed using an AKTA pure system (GE Heralthcare) coupled to a Wyatt DAWN HELEOS-II MALS instrument and a Wyatt Optilab rEX differential refractometer (Wyatt). 50 μL of the protein samples were injected at a concentration of 5 mg/mL on a Superdex 200 HR 10/300 (GE Heralthcare) column equilibrated in 25 mM Tris pH 8, 250 mM NaCl. When the effect of the peptide in the oligomeric state was tested, 1 mM peptide was added to the injected sample and the running buffer was supplemented with peptide at a final concentration of 1 μM. The Astra 7.1.2 software from the manufacturer was used for acquisition and analysis of the data.

[3] = system: spacer-length-variant operators; assay: EMSA and titration, AimR binding to spacer-length-variant operators; set-up: species or system Bacillus subtilis SPbeta phage; details: apo AimR; spacers 12 to 35 bp; titration with 0.125 to 1 μg AimR
Source text: as §1

[4] = system: SPbeta AimR operator; details: pH 7.5
Method: AimR binding to its operator and the inhibition induced by the arbitrium peptides were analyzed by native polyacrylamide and agarose gel electrophoresis. […] Double strand DNA primer probes were purchased from Macrogen (Table S1 and Figure 3A). Purified PCR product or purchased probes (0.4μM) and AimR (4μM) protein were mixed in EMSA buffer (50 mM HEPES pH 7.5, 5 mM MgCl2, 75 mM NaCl and 0.5 mM EDTA). The samples were incubated for 10 min at room temperature. 8% polyacrylamide gels were electrophoresed in Tris-Borate-EDTA (TBE) buffer at 100V for one hour, followed by loading of the samples. Electrophoresis was then performed in TBE buffer at 4°C for about 150 min at 100V. Agarose gels (0.8%–1.2%) were run in TAE buffer at room temperature for about 100 min at 80V. Gels were stained with RedSafe (Intron Biotechnology).

[5] = system: intergenic region between yopL and yopM; assay: Nuclease protection assay (footprinting); format: binding, Bacillus subtilis SPbeta phage; details: 0.3 μM AimR SPbeta, 10 min room temperature; DNase I 10^−4 mg/mL, 1 min at 37°C; capillary electrophoresis
[6] = system: SPbeta AimR D360A; assay: Thermal shift assay, mutant AimR D360A; format: binding, Bacillus subtilis SPbeta phage; details: AimR^D360A versus WT AimR
Method: The thermal shift assay was conducted in a 7500 Fast Real time PCR System (Applied Biosystems). Samples of 20 μL containing 5 × Sypro Orange (Sigma-Aldrich) and 20 μM of protein in a 20 mM Tris pH 8 and 250 mM NaCl buffer were loaded in 96-well PCR plates. To calculate the apparent Kd peptide concentrations from 0 to 2 μM were added to the mixture. Samples were heated from 20 to 85°C in steps of one degree. Fluorescent intensity was plotted versus temperature and integrated with GraphPad Prism software using a Boltzmann model to calculate melting temperatures.

[7] = Size-exclusion chromatography of AimR^ΔC-ter; format: physicochemical; details: stop codon at position 294

Molecule | binding to other SPbeta operators [1] | oligomeric state in solution [2] | affinity / capacity to bind spacer-length-variant operators [3] | binding to SPbeta operator or 359 bp fragment [4] | length of sequence protected from DNase I degradation [5] | decrease in the melting temperature with respect to the WT AimR [6] | oligomeric state in solution (size-exclusion chromatography) [7]
SPbeta AimR: full-length AimR (residues 1-386) from the SPbeta phage, transcription factor and arbitrium receptor (protein, left off: His6, N-terminal, cleaved, full-length AimR (residues 1-386) from the SPbeta phage, transcription factor and arbitrium receptor) MELIRIAMKKDLENDNSLMNKWATVAGLKNPNPLYDFLNHDGKTFNEFSSIVNIVKSQYPDREYELMKDYCLNLDVKTKAARSALEYADANMFFEIEDVLIDSMISCSNMKSKEYGKVYKIHRELSNSVITEFEAVKRLGKLNIKTPEMNSFSRLLLLYHYLSTGNFSPMAQLIKQIDLSEISENMYIRNTYQTRVHVLMSNIKLNENSLEECREYSKKALESTNILRFQVFSYLTIGNSLLFSNYELAQENFLKGLSISVQNENYNMIFQQALCFLNNVWRKENKWINFESDSIMDLQEQAHCFINFNENSKAKEVLDKLDLLVHNDNELAMHYYLKGRLEQNKACFYSSIEYFKKSNDKFLIRLPLLELQKMGENQKLLELLLL | AimR binding to other SPbeta operators with longer spacers | dimeric organization | after eliminating 2 bp AimR dramatically loses its capacity to bind the operator; also recorded: can recognize operators in which the spacer has been increased even more than 6 bp | binds to a 359 bp fragment | 37 nt | – | –
AimR^D360A: SPbeta AimR residue D360 mutated to Ala (protein) MELIRIAMKKDLENDNSLMNKWATVAGLKNPNPLYDFLNHDGKTFNEFSSIVNIVKSQYPDREYELMKDYCLNLDVKTKAARSALEYADANMFFEIEDVLIDSMISCSNMKSKEYGKVYKIHRELSNSVITEFEAVKRLGKLNIKTPEMNSFSRLLLLYHYLSTGNFSPMAQLIKQIDLSEISENMYIRNTYQTRVHVLMSNIKLNENSLEECREYSKKALESTNILRFQVFSYLTIGNSLLFSNYELAQENFLKGLSISVQNENYNMIFQQALCFLNNVWRKENKWINFESDSIMDLQEQAHCFINFNENSKAKEVLDKLDLLVHNDNELAMHYYLKGRLEQNKACFYSSIEYFKKSNAKFLIRLPLLELQKMGENQKLLELLLL | – | dimeric in solution | – | – | – | 5.3 °C | –
AimR^N202A: SPbeta AimR residue N202 mutated to Ala (protein) MELIRIAMKKDLENDNSLMNKWATVAGLKNPNPLYDFLNHDGKTFNEFSSIVNIVKSQYPDREYELMKDYCLNLDVKTKAARSALEYADANMFFEIEDVLIDSMISCSNMKSKEYGKVYKIHRELSNSVITEFEAVKRLGKLNIKTPEMNSFSRLLLLYHYLSTGNFSPMAQLIKQIDLSEISENMYIRNTYQTRVHVLMSAIKLNENSLEECREYSKKALESTNILRFQVFSYLTIGNSLLFSNYELAQENFLKGLSISVQNENYNMIFQQALCFLNNVWRKENKWINFESDSIMDLQEQAHCFINFNENSKAKEVLDKLDLLVHNDNELAMHYYLKGRLEQNKACFYSSIEYFKKSNDKFLIRLPLLELQKMGENQKLLELLLL | – | dimeric in solution | – | able to bind DNA | – | – | –
AimR^ΔC-ter: AimR mutant lacking the TPR^C-ter subdomain, stop codon at position 294 (protein) MELIRIAMKKDLENDNSLMNKWATVAGLKNPNPLYDFLNHDGKTFNEFSSIVNIVKSQYPDREYELMKDYCLNLDVKTKAARSALEYADANMFFEIEDVLIDSMISCSNMKSKEYGKVYKIHRELSNSVITEFEAVKRLGKLNIKTPEMNSFSRLLLLYHYLSTGNFSPMAQLIKQIDLSEISENMYIRNTYQTRVHVLMSNIKLNENSLEECREYSKKALESTNILRFQVFSYLTIGNSLLFSNYELAQENFLKGLSISVQNENYNMIFQQALCFLNNVWRKENKWINFESD | – | – | – | – | – | – | monomeric in solution
